Reference: the Immune Epitope Database (IEDB)

What follows are sequences tested against HLA-A*68:02 (assay: IEDB peptide-MHC binding, cellular MHC/competitive/fluorescence; ≥ and ≤ were set here for values at or beyond the usual limits of such assays). Conditions: source organism: Influenza A virus.

Compared with AAMDDFQLI, SLCPIRGWAI is 3.6-fold lower in IC50: 57.9 µM for the first, 16.2 µM for the second. The second is the more potent here.

Same assay, conditions: source organism: Vaccinia virus WR

First: CALVSDCAST
Second: DLKHATDYIA
The IC50 of the first is 5.7-fold higher: 52.9 µM for the first, 9.31 µM for the second. The second is the more potent here.

First: DLLLPSTDV
Second: FAFIDFSKST
The IC50 of the first is 2.6-fold higher: 13.3 µM for the first, 5.06 µM for the second.

First: FIISTLNKIL
Second: GAAITLVVI
The IC50 of the first is 1.6-fold higher: 11.7 µM for the first, 7.26 µM for the second.

GALYLGHSA and GVLIAGIIL are within 1.5-fold of each other in IC50: 12.8 µM for the first, 16.9 µM for the second.

First: ITLVVISVI
Second: ITPNNLNKI
The IC50 of the first is 2.2-fold lower: 6.03 µM for the first, 13.4 µM for the second. The first is the more potent here.

Compared with IVQSVLRDI, KINNNRIVAM is 2.1-fold lower in IC50: 47.8 µM for the first, 22.7 µM for the second.

Compared with KTPLYYLSGT, KTRLFRSPQV is 5.5-fold lower in IC50: 34.3 µM for the first, 6.21 µM for the second.

First: LTQVKELGIA
Second: LVQYRILPM
The IC50 of the first is 4.4-fold lower: 13.4 µM for the first, 59.6 µM for the second.

LVQYRILPMI and NIKPVIVPDI are within 1.5-fold of each other in IC50: 12.5 µM for the first, 9.46 µM for the second.

Going from NINIEVKLFI to QQLCTMERT, the IC50 rises from 7.44 µM to no less than 70 µM. The first is the more potent here.

First: QVKELGIAI
Second: SIGFEARIV
The IC50 of the first is 2.5-fold lower: 7.56 µM for the first, 19.2 µM for the second. The first is the more potent here.

Going from TQVKELGIA to VAMLLTHGA, the IC50 falls from 23.4 µM to 9.47 µM (2.5-fold).

First: VIDRLPSET
Second: VILKDPRIA
The IC50 of the first is 4.4-fold lower: 8.57 µM for the first, 37.9 µM for the second.

VLEKKVCAI and VQLPKRGVRV are within 1.5-fold of each other in IC50: 45.4 µM for the first, 55.7 µM for the second.

First: VQLSNNKYV
Second: VTDKTAYIGT
The IC50 of the first is higher: no less than 70 µM for the first, 6.47 µM for the second.

VTLNRIKIA and YIWIKNLET are within 1.5-fold of each other in IC50: 26.3 µM for the first, 32 µM for the second.

YVILKDPRIA showed an IC50 of 19 µM.

These sequences were tested against HLA-A*02:06 in the same assay as above. Conditions: source organism: Influenza A virus.

Work on VNPTLLFLKV yielded an IC50 of 16.4 µM.

Same assay, conditions: source organism: Vaccinia virus WR

Going from AVTLNRIKI to CIVAAVIIM, the IC50 rises from 7.61 µM to 32.7 µM (4.3-fold).

First: DAMIHKTYI
Second: DINVIGLIV
The IC50 of the first is 1.7-fold higher: 9.56 µM for the first, 5.53 µM for the second.

Compared with DITNILGGV, DITNILGGVL is 2.6-fold higher in IC50: 7.43 µM for the first, 19 µM for the second. The first is the more potent here.

First: EAFETQSGAL
Second: GLIVILFIM
The IC50 of the first is 2.8-fold higher: 15 µM for the first, 5.29 µM for the second. The second is the more potent here.

Compared with LTKDRKMLEL, NTITTFIPI is 2.7-fold lower in IC50: 20.8 µM for the first, 7.77 µM for the second.

In the case of RTWKVLSIM, the IC50 is reported as 33.9 µM.

What follows are sequences tested against HLA-A*02:02 in the same assay as above. Conditions: source organism: Influenza A virus.

Compared with AAMDDFQLI, SLCPIRGWAI is 1.7-fold lower in IC50: 9.59 µM for the first, 5.52 µM for the second.

Sequence VNPTLLFLKV has an IC50 of 6.37 µM.

Same assay, conditions: source organism: Vaccinia virus WR

First: AVTLNRIKI
Second: CALVSDCAST
The IC50 of the first is 1.7-fold higher: 10.8 µM for the first, 6.41 µM for the second. The second is the more potent here.

Going from CIVAAVIIM to DAMIHKTYI, the IC50 falls from 14.3 µM to 5.42 µM (2.6-fold). The second is the more potent here.

DINVIGLIV and DITNILGGV are within 1.5-fold of each other in IC50: 9.8 µM for the first, 9.88 µM for the second.

DITNILGGVL and DLKHATDYIA are within 1.5-fold of each other in IC50: 12.3 µM for the first, 8.76 µM for the second.

Compared with DLLLPSTDV, EAFETQSGAL is 1.8-fold lower in IC50: 15.1 µM for the first, 8.56 µM for the second.

Compared with FAFIDFSKST, FIISTLNKIL is 2.3-fold lower in IC50: 11.8 µM for the first, 5.08 µM for the second. The second is the more potent here.

GAAITLVVI and GALYLGHSA are within 1.5-fold of each other in IC50: 6.45 µM for the first, 7.5 µM for the second.

Going from GLIVILFIM to GVLIAGIIL, the IC50 falls from 13.4 µM to 5.24 µM (2.6-fold).

ITLVVISVI and ITPNNLNKI are within 1.5-fold of each other in IC50: 15.1 µM for the first, 14.6 µM for the second.

Going from IVQSVLRDI to KINNNRIVAM, the IC50 falls from no less than 70 µM to 9.12 µM.

First: KTPLYYLSGT
Second: KTRLFRSPQV
The IC50 of the first is 2.4-fold higher: 21.9 µM for the first, 9.27 µM for the second.

Compared with LTKDRKMLEL, LTQVKELGIA is 1.5-fold higher in IC50: 7.7 µM for the first, 11.8 µM for the second. The first is the more potent here.

LVQYRILPM and LVQYRILPMI are within 1.5-fold of each other in IC50: 14.8 µM for the first, 12.5 µM for the second.

NIKPVIVPDI and NINIEVKLFI are within 1.5-fold of each other in IC50: 10.3 µM for the first, 12.5 µM for the second.

NTITTFIPI and NVTYNIKPV are within 1.5-fold of each other in IC50: 15.5 µM for the first, 22.8 µM for the second.

Compared with QQLCTMERT, QVKELGIAI is lower in IC50: no less than 70 µM for the first, 9.05 µM for the second. The second is the more potent here.

Going from RTIDAINKCV to RTWKVLSIM, the IC50 rises from 10.8 µM to 19.1 µM (1.8-fold).

SASDMQKFTI and SIGFEARIV are within 1.5-fold of each other in IC50: 10.8 µM for the first, 10.1 µM for the second.

STFNMWREI and STIANSNII are within 1.5-fold of each other in IC50: 5.82 µM for the first, 6.12 µM for the second.

STVDVRNIV and TQVKELGIA are within 1.5-fold of each other in IC50: 6.33 µM for the first, 7.22 µM for the second.

VAMLLTHGA and VIDRLPSET are within 1.5-fold of each other in IC50: 7.16 µM for the first, 7.08 µM for the second.

VILKDPRIA and VLEKKVCAI are within 1.5-fold of each other in IC50: 10.6 µM for the first, 14.4 µM for the second.

Going from VQLPKRGVRV to VQLSNNKYV, the IC50 falls from 33.7 µM to 7.34 µM (4.6-fold). The second is the more potent here.

Compared with VTDKTAYIGT, VTLNRIKIA is 1.6-fold lower in IC50: 21.8 µM for the first, 13.3 µM for the second.

First: YASLTTIGTI
Second: YIWIKNLET
The IC50 of the first is 2-fold lower: 6.29 µM for the first, 12.6 µM for the second. The first is the more potent here.

Work on YVILKDPRIA yielded an IC50 of 6.01 µM.

The sequences below were run against HLA-A*02:01 in the same assay as above. Conditions: source organism: Influenza A virus.

Work on AAMDDFQLI yielded an IC50 of 7.96 µM.

Same assay, conditions: source organism: Vaccinia virus WR

DAMIHKTYI and DITNILGGV are within 1.5-fold of each other in IC50: 8.17 µM for the first, 11.4 µM for the second.

DITNILGGVL and DLKHATDYIA are within 1.5-fold of each other in IC50: 16.2 µM for the first, 16.3 µM for the second.

Compared with EAFETQSGAL, FAFIDFSKST is 1.8-fold lower in IC50: 14.2 µM for the first, 7.72 µM for the second. The second is the more potent here.

GALYLGHSA and ITPNNLNKI are within 1.5-fold of each other in IC50: 22.6 µM for the first, 33.5 µM for the second.

Compared with IVQSVLRDI, KINNNRIVAM is 2-fold lower in IC50: 47.3 µM for the first, 23.7 µM for the second.

Going from KTPLYYLSGT to KTRLFRSPQV, the IC50 falls from 45 µM to 7.06 µM (6.4-fold).

LTQVKELGIA and LVQYRILPM are within 1.5-fold of each other in IC50: 39.2 µM for the first, 34.7 µM for the second.

First: NIKPVIVPDI
Second: NVTYNIKPV
The IC50 of the first is higher: no less than 70 µM for the first, 6.36 µM for the second.

Compared with QQLCTMERT, QVKELGIAI is 4.4-fold lower in IC50: 46.7 µM for the first, 10.7 µM for the second. The second is the more potent here.

Compared with RTIDAINKCV, SASDMQKFTI is 1.9-fold lower in IC50: 25 µM for the first, 13.5 µM for the second. The second is the more potent here.

SIGFEARIV and STFNMWREI are within 1.5-fold of each other in IC50: 7.3 µM for the first, 5.67 µM for the second.

Going from STIANSNII to STVDVRNIV, the IC50 falls from 12.7 µM to 8.07 µM (1.6-fold). The second is the more potent here.

TQVKELGIA and VAMLLTHGA are within 1.5-fold of each other in IC50: 12.4 µM for the first, 8.93 µM for the second.

VTDKTAYIGT and YASLTTIGTI are within 1.5-fold of each other in IC50: 6.62 µM for the first, 8.42 µM for the second.

For YVILKDPRIA, the IC50 was 39.5 µM.

What follows are sequences tested against HLA-A*68:02 (assay: IEDB peptide-MHC binding, purified MHC/competitive/radioactivity; ≥ and ≤ were set here for values at or beyond the usual limits of such assays). Conditions: source organism: Influenza A virus.

VNPTLLFLKV was tested, and the IC50 was 0.024 µM.

Same assay, conditions: source organism: Vaccinia virus WR

With AVTLNRIKI the IC50 was 4.95 µM.
